Results on three molecules are retold here after PMC13066097 (Nature Communications, 2026).

Assay [1] concerns the target T1, recombinant PcrV protein (rePcrV) coated on ELISA plates (Pseudomonas aeruginosa, strain not told …).
T1 chain: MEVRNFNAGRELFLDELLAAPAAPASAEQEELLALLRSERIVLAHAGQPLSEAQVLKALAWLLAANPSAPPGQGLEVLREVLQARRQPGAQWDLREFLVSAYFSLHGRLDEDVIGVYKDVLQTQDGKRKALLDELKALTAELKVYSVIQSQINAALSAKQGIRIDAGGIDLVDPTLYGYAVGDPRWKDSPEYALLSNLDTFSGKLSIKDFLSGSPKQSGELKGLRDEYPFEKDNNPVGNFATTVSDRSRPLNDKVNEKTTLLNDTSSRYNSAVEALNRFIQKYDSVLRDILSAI
Nature of the assay: ELISA. Background: ELISA stands for enzyme-linked immunosorbent assay.

Assay [2] concerns the target T2, 6xHis-tagged PcrV of P. aeruginosa clinical isolate KN5 expressed in E. coli (Pseudomonas aeruginosa KN5 (ST357), strain).
T2 chain: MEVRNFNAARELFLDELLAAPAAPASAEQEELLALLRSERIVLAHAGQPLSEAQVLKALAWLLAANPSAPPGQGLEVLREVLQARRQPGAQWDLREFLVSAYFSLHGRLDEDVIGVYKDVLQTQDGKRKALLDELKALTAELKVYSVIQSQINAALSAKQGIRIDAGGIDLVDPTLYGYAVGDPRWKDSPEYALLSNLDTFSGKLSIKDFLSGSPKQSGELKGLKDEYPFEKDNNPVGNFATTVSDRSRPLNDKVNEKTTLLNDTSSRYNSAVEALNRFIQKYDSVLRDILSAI
Nature of the assay: immunoblot.

The target of assay [3] is 6xHis-tagged PcrV of P. aeruginosa clinical isolate KN15 expressed in E. coli (Pseudomonas aeruginosa KN15 (ST512), strain). Nature of the assay: immunoblot. On the technique in general: A western blot detects proteins with antibodies after separation by electrophoresis.
Assay [4] concerns the target T3, 6xHis-tagged PcrV of P. aeruginosa clinical isolate KN17 expressed in E. coli (Pseudomonas aeruginosa KN17 (ST357), strain).
T3 chain: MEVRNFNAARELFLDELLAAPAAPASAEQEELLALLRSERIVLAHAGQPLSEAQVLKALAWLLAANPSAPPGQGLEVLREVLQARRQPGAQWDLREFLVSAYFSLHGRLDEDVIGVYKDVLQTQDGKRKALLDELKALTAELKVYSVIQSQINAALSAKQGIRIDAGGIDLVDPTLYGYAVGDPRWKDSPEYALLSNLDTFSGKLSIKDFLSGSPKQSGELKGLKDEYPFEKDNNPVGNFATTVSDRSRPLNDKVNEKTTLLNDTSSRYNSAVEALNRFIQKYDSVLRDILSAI
Nature of the assay: immunoblot.

In assay [5] the target is T4, 6xHis-tagged PcrV of P. aeruginosa clinical isolate KN27 expressed in E. coli (Pseudomonas aeruginosa KN27 (ST235), strain).
T4 chain: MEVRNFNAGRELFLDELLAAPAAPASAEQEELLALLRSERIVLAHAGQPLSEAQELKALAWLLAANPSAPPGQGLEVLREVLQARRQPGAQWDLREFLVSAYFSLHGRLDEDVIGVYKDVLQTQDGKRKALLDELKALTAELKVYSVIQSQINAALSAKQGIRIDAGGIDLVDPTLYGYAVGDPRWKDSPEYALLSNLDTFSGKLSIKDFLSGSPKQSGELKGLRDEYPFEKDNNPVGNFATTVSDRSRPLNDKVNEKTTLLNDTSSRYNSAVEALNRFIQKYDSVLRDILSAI
Nature of the assay: immunoblot.

In assay [6] the target is T5, 6xHis-tagged PcrV of P. aeruginosa clinical isolate KN28 expressed in E. coli (Pseudomonas aeruginosa KN28 (ST357), strain).
T5 chain: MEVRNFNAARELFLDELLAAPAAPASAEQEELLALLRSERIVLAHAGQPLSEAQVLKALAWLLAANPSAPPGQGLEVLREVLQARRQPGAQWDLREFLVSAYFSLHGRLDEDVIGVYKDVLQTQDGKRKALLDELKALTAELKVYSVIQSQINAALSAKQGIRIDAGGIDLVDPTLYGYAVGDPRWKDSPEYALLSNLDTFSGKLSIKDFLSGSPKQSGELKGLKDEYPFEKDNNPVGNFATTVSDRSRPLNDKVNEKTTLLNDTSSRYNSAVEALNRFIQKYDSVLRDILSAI
Nature of the assay: immunoblot.

In assay [7] the target is 6xHis-tagged PcrV of P. aeruginosa clinical isolate KN33 expressed in E. coli (Pseudomonas aeruginosa KN33 (ST508), strain). Kind of assay: immunoblot.
The target of assay [8] is 6xHis-tagged PcrV of P. aeruginosa clinical isolate KN34 expressed in E. coli (Pseudomonas aeruginosa KN34 (ST186), strain). Kind of assay: immunoblot.
Assay [9] addresses 6xHis-tagged PcrV of P. aeruginosa clinical isolate KN37 expressed in E. coli (Pseudomonas aeruginosa KN37 (ST244), strain). Kind of assay: immunoblot.
The target in assay [10] is T6, 6xHis-tagged PcrV of P. aeruginosa clinical isolate KN41 expressed in E. coli (Pseudomonas aeruginosa KN41 (ST235), strain).
T6 chain: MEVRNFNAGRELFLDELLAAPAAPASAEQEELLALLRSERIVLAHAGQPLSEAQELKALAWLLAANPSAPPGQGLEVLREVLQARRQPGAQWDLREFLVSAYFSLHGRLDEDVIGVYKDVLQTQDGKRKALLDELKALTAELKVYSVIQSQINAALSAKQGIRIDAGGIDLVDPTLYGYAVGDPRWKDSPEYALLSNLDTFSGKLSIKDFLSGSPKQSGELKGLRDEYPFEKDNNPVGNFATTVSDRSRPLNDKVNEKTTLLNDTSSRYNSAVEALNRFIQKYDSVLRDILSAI
Nature of the assay: immunoblot.

Assay [11] has as its target T7, 6xHis-tagged PcrV of P. aeruginosa clinical isolate KP2401 expressed in E. coli (Pseudomonas aeruginosa KP2401 (ST5295), strain).
T7 chain: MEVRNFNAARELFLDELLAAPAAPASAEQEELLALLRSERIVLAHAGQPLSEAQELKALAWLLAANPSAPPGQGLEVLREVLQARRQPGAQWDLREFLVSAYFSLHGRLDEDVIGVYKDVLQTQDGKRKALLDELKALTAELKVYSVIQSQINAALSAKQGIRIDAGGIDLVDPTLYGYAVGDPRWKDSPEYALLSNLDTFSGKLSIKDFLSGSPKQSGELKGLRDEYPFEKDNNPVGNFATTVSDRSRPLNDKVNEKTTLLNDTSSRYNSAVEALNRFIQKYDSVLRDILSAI
Kind of assay: immunoblot.

Assay [12] addresses T8, PcrV of P. aeruginosa clinical isolate KN17, from bacterial culture (Pseudomonas aeruginosa clinical isolate …, strain).
T8 chain: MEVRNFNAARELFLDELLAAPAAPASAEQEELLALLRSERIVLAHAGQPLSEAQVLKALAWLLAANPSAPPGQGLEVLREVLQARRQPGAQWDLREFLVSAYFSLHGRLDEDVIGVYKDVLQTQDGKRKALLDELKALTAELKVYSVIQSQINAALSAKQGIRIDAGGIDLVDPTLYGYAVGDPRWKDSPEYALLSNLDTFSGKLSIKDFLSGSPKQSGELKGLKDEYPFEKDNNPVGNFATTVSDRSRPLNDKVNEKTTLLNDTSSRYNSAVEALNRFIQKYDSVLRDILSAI
Kind of assay: immunoblot.

Assay [13] has as its target T9, PcrV of P. aeruginosa clinical isolate KN27, from bacterial culture (Pseudomonas aeruginosa KN27 (ST235), strain).
T9 chain: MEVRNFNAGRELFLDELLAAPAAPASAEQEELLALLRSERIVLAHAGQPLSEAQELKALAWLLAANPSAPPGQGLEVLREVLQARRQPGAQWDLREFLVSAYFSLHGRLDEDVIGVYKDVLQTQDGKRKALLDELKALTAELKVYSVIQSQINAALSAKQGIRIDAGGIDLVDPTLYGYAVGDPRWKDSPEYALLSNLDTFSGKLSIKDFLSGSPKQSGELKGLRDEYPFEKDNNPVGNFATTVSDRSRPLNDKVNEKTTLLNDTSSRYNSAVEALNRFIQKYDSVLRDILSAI
Kind of assay: immunoblot.

Assay [14] concerns the target T10, PcrV of P. aeruginosa clinical isolate KN28, from bacterial culture (Pseudomonas aeruginosa KN28 (ST357); …, strain).
T10 chain: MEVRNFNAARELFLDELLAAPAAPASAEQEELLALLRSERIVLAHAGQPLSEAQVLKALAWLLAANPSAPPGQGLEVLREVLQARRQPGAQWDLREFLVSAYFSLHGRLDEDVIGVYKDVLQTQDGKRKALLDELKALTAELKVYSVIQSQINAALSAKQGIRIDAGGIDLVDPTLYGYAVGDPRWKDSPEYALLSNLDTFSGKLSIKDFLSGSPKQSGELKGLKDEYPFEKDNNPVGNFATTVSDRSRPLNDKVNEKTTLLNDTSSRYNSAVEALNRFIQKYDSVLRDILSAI
Kind of assay: immunoblot.

Assay [15] addresses PcrV of P. aeruginosa clinical isolate KN33, from bacterial culture (Pseudomonas aeruginosa KN33 (ST508), UniProt G3XD49, strain). Nature of the assay: immunoblot.
Assay [16] addresses PcrV of P. aeruginosa clinical isolate KN34, from bacterial culture (Pseudomonas aeruginosa KN34 (ST186), UniProt G3XD49, strain). Kind of assay: immunoblot.
The target in assay [17] is PcrV of P. aeruginosa clinical isolate KN37, from bacterial culture (Pseudomonas aeruginosa KN37 (ST244), UniProt G3XD49, strain). Kind of assay: immunoblot.
In assay [18] the target is T11, PcrV of P. aeruginosa clinical isolate KN41, from bacterial culture (Pseudomonas aeruginosa KN41 (ST235), strain).
T11 chain: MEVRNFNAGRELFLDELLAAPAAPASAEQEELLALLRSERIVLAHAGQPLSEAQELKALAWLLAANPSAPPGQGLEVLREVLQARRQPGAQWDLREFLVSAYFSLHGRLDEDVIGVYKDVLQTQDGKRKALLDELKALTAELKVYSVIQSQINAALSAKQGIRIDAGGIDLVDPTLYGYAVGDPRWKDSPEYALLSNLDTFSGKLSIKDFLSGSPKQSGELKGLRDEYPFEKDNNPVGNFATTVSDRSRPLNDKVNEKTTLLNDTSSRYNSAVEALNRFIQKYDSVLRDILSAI
Kind of assay: immunoblot.

Assay [19] addresses T12, PcrV of P. aeruginosa clinical isolate KP2401, from bacterial culture (Pseudomonas aeruginosa KP2401 (ST5295), strain).
T12 chain: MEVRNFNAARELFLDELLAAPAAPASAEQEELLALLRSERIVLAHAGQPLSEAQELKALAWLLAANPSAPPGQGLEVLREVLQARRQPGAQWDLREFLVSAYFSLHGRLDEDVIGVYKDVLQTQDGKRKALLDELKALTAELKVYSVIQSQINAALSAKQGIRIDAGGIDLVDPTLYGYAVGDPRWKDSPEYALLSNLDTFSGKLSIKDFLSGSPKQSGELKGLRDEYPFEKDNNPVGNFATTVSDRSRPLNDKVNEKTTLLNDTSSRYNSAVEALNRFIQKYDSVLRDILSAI
Nature of the assay: immunoblot.

For assay [20], the target named is PcrV of P. aeruginosa strain PAO1, from bacterial culture (Pseudomonas aeruginosa PAO1). Nature of the assay: immunoblot.
Assay [21] has as its target T13, PcrV of P. aeruginosa clinical isolate KN5, from bacterial culture (Pseudomonas aeruginosa KN5 (ST357), strain).
T13 chain: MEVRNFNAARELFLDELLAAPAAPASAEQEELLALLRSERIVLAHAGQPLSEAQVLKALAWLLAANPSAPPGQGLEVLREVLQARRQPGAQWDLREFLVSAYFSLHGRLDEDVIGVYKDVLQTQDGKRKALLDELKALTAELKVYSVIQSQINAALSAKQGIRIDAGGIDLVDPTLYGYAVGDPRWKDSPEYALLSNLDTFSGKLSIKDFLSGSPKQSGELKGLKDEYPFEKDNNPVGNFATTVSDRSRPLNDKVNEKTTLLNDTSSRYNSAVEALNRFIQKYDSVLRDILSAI
Kind of assay: immunoblot.

Assay [22] deals with PcrV of P. aeruginosa clinical isolate KN15, from bacterial culture (Pseudomonas aeruginosa KN15 (ST512), strain). Kind of assay: immunoblot.

B1: anti-PcrV scFv antibody scFv-m166 (recombinant protein) (scFv, V domains shown)
VH: QVQLKQSGPGLVQPSQSLSITCTVSGFSLTSYGVHWVRQSPGKGLEWLGVIWSGGDTDYNAAFISRLSISKDNSKSQLFFKMNSLRATDTAIYYCARNRGDIYYDFTYAMDYWGQGTSVTVSS
VL: DIQMTQSPASLSASVGETVTITCRASGNIQNYLAWYQQTQGKSPQLLVYSAKTLADGVPSRFSGSGSGTQYSLKINSLQPEDFGSYYCQHFWSTPYTFGGGTKLEIK
Consider B1, for which the EC50 in [1] amounted to 35 nM.

B2: murine monoclonal anti-PcrV IgG mAb166 (antibody, V domains shown)
VH: QVQLKQSGPGLVQPSQSLSITCTVSGFSLTSYGVHWVRQSPGKGLEWLGVIWSGGDTDYNAAFISRLSISKDNSKSQLFFKMNSLRATDTAIYYCARNRGDIYYDFTYAMDYWGQGTSVTVSS
VL: DIQMTQSPASLSASVGETVTITCRASGNIQNYLAWYQQTQGKSPQLLVYSAKTLADGVPSRFSGSGSGTQYSLKINSLQPEDFGSYYCQHFWSTPYTFGGGTKLEIK
Turning to B2, the binding result in assay [2], in assay [3], in [4], in [5], in assay [6] and in assay [7] was “binds” each time. In addition, the binding result in assay [8], in [9], in assay [10], in assay [11], in assay [12] and in assay [13] was “binds” throughout. The binding result in [14], in assay [15], in assay [16], in [17], in assay [18] and in assay [19] was “binds” in each case. In addition, the binding result in assay [20], in [21] and in assay [22] was “binds” each time.

B3: anti-PcrV scFv conjugated with the mouse IgG1 hinge, CH2 and CH3 domains, scFv-m166-mFc (recombinant protein) (Fc fusion)
VH: QVQLKQSGPGLVQPSQSLSITCTVSGFSLTSYGVHWVRQSPGKGLEWLGVIWSGGDTDYNAAFISRLSISKDNSKSQLFFKMNSLRATDTAIYYCARNRGDIYYDFTYAMDYWGQGTSVTVSS
VL: DIQMTQSPASLSASVGETVTITCRASGNIQNYLAWYQQTQGKSPQLLVYSAKTLADGVPSRFSGSGSGTQYSLKINSLQPEDFGSYYCQHFWSTPYTFGGGTKLEIK
Take B3: in assay [1], the EC50 amounted to 57.2 nM.

Broadly, the EC50 is the midpoint of the concentration-response curve.
